In article PMC6915384, “Kinetic Parameter Estimation and Mathematical Modelling of Lipase Catalysed Biodiesel Synthesis in a Microreactor” (Micromachines, 2019):

Substrate: CO
Experiment: initial rates of FAME formation in PTFE microreactor, GC; non-linear regression
Assay type: biochemical, Thermomyces lanuginosus
Conditions: transesterification, co-substrate sunflower oil (fatty acids constant; printed 1,488.15 mg/L), 40 °C, 0.01 mol/L potassium phosphate pH 7.4, double-substrate Michaelis-Menten, methanol range printed a

B1: lipase from Thermomyces lanuginosus (Lipolase 100L; Lipolase L100; TlL) (Thermomyces lanuginosus) (protein)
chain: EVSQDLFNQFNLFAQYSAAAYCGKNNDAPAGTNITCTGNACPEVEKADATFLYSFEDSGVGDVTGFLALDNTNKLIVLSFRGSRSIENWIGNLNFDLKEINDICSGCRGHDGFTSSWRSVADTLRQKVEDAVREHPDYRVVFTGHSLGGALATVAGADLRGNGYDIDVFSYGAPRVGNRAFAEFLTVQTGGTLYRITHTNDIVPRLPPREFGYSHSSPEYWIKSGTLVPVTRNDIVKIEGIDATGGNNQPNIPDIPAHLWYFGLIGTCL
notes: commercial liquid preparation Lipolase 100L (Sigma-Aldrich), free enzyme in phosphate buffer; mass 33,400 g/mol used for calculations (cited)
Km: 7.56 ± 2.77 mg/mL
